B1: CLPTM1 (parent)
chain: MNLHVYISEHEHFTDFNATSALFW
B2: INTS4 (parent)
chain: IRLVDDAFGKICHMVSDGSWVVRV

Variants of: B1
Test: protein stability index of a GFP-peptide fusion (GPS, HEK-293T) (PSI 1-6); higher = more stable
Conditions: c terminus: a fixed tail appended
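Further: lentivirally expressed fusions sorted by FACS into six bins by GFP to DsRed ratio, PSI derived from sequencing read proportions per bin multiplied by bin number.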

Variant | protein stability index
N2M | 2.77
N2L | 2.57
N2V | 3.88
N2I | 2.04
N2F | 3.32
N2P | 1.55
N2Q | 1
N2G | 2.73
N2S | 4.89
N2C | 2.73
N2D | 1.53
N2Y | 2.55
N2T | 2.58
L3P | 1.52
L3D | 2.44
L3F | 2.7
L3C | 1.94
L3I | 3.08
L3G | 2.78
L3Q | 1.42
L3N | 1.2
L3E | 2.62

Variant | protein stability index
L3R | 1.96
L3S | 2.15
L3M | 2.18
L3T | 1.47
L3W | 1.98
L3K | 1.9
L3V | 1.14
Y6I | 2.61
Y6E | 2.93
Y6D | 2.1
Y6P | 1.49
Y6T | 4.82
Y6F | 2.84
Y6Q | 2.4
Y6C | 2.52
Y6R | 3.35
Y6K | 3.26
Y6N | 2.22
Y6A | 2.15
Y6L | 3.45
Y6H | 2.59
Y6S | 3.07

Variant | protein stability index
I7K | 2.96
I7Y | 4.01
I7G | 2.92
I7V | 3.33
I7L | 2.45
I7D | 2.53
I7N | 3.55
I7S | 2.45
I7A | 2.6
I7W | 2.65
I7C | 2
I7H | 1.79
I7R | 3.14
I7E | 2.48
I7M | 3.09
I7F | 2.58
V5W | 4.32
V5Q | 1.48
V5L | 2.05
V5S | 3.51
V5E | 1.34
V5K | 2.01

Variant | protein stability index
V5I | 3.89
V5H | 2.42
V5M | 3.04
V5Y | 2.24
V5T | 1.76
V5D | 2.1
V5N | 1.39
V5A | 2.42
S8D | 3.18
S8P | 3.32
S8T | 2.08
S8R | 3.37
S8L | 2.96
S8I | 1.69
S8H | 3.35
H4F | 1.89
H4E | 1.45
H4W | 4.27
H4I | 2.62
H4Y | 4.32
H4R | 5.47
H4P | 1.43

Variant | protein stability index
H4Q | 2.12
H4L | 2.97
H4K | 1.99
H4M | 2.69
M1Y | 2.55
M1K | 2.95
M1D | 1.72
M1F | 2.29
M1I | 3.18
M1P | 1.93
M1S | 2.69
M1N | 3.69
M1T | 2.97
M1Q | 2.58
M1V | 3.6
M1G | 2.8
M1E | 1.33
M1R | 2.51

Variants of: B2
Test: as above
Conditions: c terminus: a fixed tail appended

Variant | protein stability index
S19H | 3.8
S19D | 3.41
S19V | 3.96
S19T | 3.28
S19L | 2.95
S19C | 1.73
S19K | 2.25
S19G | 1.58
S19W | 1.01
S19F | 2.73
S19A | 2.89
S19M | 2.38
M14I | 2.62
M14P | 2.76
M14A | 2.75
M14D | 4.2
M14V | 4.58
M14F | 3.85
M14R | 1.53
M14H | 3.19
G18S | 1.88
G18N | 2.01
G18F | 2.29
G18P | 4.4
G18R | 2.9
G18I | 3.15

Variant | protein stability index
G18E | 2.57
G18K | 3.25
G18M | 1.8
G18T | 1.95
V15T | 3.2
V15I | 2.87
V15C | 4.47
V15A | 3.99
V15K | 2.06
V15Q | 3.06
V15H | 2.22
V15G | 3.51
V15D | 2.06
V15S | 1.84
V15P | 3.17
D6M | 3.24
D6T | 3.69
D6R | 2.21
D6N | 4.84
D6Q | 4.08
D6W | 2.88
D6L | 1.98
D6G | 2.84
S16C | 2.56
S16M | 2.25
S16V | 1.29

Variant | protein stability index
S16Q | 2.47
S16L | 3.17
S16R | 2.56
S16N | 2.52
S16E | 2.31
S16I | 2.59
L3R | 2.08
L3H | 2.17
L3F | 2.76
L3V | 3.33
L3A | 3.09
L3C | 1.72
L3W | 1.97
L3E | 3.14
I1C | 2.39
I1N | 3.6
I1T | 3.21
I1K | 3.49
I1Y | 2.87
I1Q | 3.89
I1E | 2.77
I1P | 2.78
I1H | 3.54
I1A | 2.67
I1F | 4.01
V24S | 2.31

Variant | protein stability index
V24T | 4
V24I | 3.12
V24P | 3.21
V24H | 2.79
V24R | 3.03
V24M | 1.46
V24Y | 3.37
V24F | 3.03
V24C | 2.68
V24W | 1.57
V24N | 1.42
V24K | 1.58
C12T | 2.91
C12H | 2.35
C12D | 3.58
C12A | 3.65
C12K | 4.92
C12N | 2.44
C12G | 5.66
C12Q | 2.82
C12P | 3.97
C12R | 4.2
V4M | 4.21
V4S | 2.82
V4L | 4.43
V4C | 2.16

Variant | protein stability index
V4I | 3.33
V4N | 1.36
V4A | 3.46
V4P | 2.57
V4F | 2.26
V4Y | 2.46
W20L | 2.83
W20Q | 3.26
W20A | 3.43
W20I | 2.89
W20H | 3.71
W20F | 2.47
W20R | 2.79
W20G | 1.7
W20K | 1.36
W20D | 1.61
W20Y | 2.87
D17C | 2.15
D17W | 2.22
D17R | 2.02
D17A | 3.62
D17S | 3.98
D17F | 1.24
D17L | 2.79
D17E | 2.35
D17Q | 3.32

Variant | protein stability index
D17P | 2.05
D17H | 3.91
D17N | 2.41
V21K | 3.29
V21H | 3.08
V21Y | 4.71
V21R | 2.88
V21C | 3.07
V21G | 1.89
V21T | 2.18
V21E | 2
V21P | 1.98
R2M | 2.78
R2V | 4.66
R2A | 3.67
R2S | 2.96
R23A | 4.14
R23G | 2.32
R23S | 2.39
R23M | 3.4
R23H | 2.94
R23F | 3
R23D | 2.15
R23E | 2.13
R23I | 3.28
R23N | 2.02

Variant | protein stability index
R23T | 1.88
R23C | 3.87
G9M | 2.96
G9F | 3.37
G9E | 1.14
G9P | 3.75
G9V | 2.6
G9R | 2.17
G9Y | 3.11
V22L | 2.82
V22H | 2.78
V22T | 4.7
V22K | 3.02
V22Y | 4.15
V22R | 3.28
V22D | 3.6
V22W | 2.35
V22I | 3.27
V22F | 3.53
V22C | 3.31
V22E | 2.56
I11Y | 3.31
I11C | 2.87
I11S | 2.87
I11M | 2.41
I11H | 3.47

Variant | protein stability index
I11Q | 2.63
I11N | 2.3
I11V | 3.14
K10G | 2.29
K10L | 2.96
K10N | 1.78
K10F | 2.4
K10C | 3.27
K10I | 2.57
F8E | 3.82
F8G | 1.6
F8H | 2.19
F8D | 4.44
F8C | 2.59
F8Q | 2.5
F8M | 2.69
F8K | 2.31
F8P | 2.54
F8Y | 2.45
F8S | 3.94
A7L | 3.62
A7K | 2.09
A7W | 3.37
A7S | 4.46
A7F | 2.22
A7G | 2.95

Variant | protein stability index
A7D | 2.86
D5C | 3.07
D5V | 2.32
D5F | 4.33
D5P | 2.53
D5A | 2.73
D5L | 3.22
D5G | 3.16
D5K | 3.01
D5Y | 3.78
D5I | 2.67
D5R | 1.8
H13G | 2.97
H13K | 3.46
H13A | 3.2
H13I | 3.17
H13P | 2.63
H13M | 3.09
H13D | 3.12
H13S | 1.3
